Reference: US20120282280A1 (Hoffmann-La Roche, published 2012)

Key:
[1] = target: DIG-Myoglobin (mono-digoxygenated protein); assay: SPR (Biacore), DIG-Myoglobin as analyte; lower end of the range, tied to <DIG>hu2 by Table 3a
[2] = target: DIG-Myoglobin (mono-digoxygenated protein); assay: SPR (Biacore), DIG-Myoglobin as analyte
[3] = target: DIG-BP4 (digoxygenated protein); assay: SPR (Biacore), antibody captured by anti-human IgG, DIG-BP4 injected 0.3125-10 nM, 25 C
[4] = target: DIG-Myoglobin (mono-digoxygenated protein); assay: SPR (Biacore), DIG-Myoglobin as analyte, replicate
[5] = target: DIG-Myoglobin (mono-digoxygenated protein); assay: SPR (Biacore), DIG-Myoglobin as analyte; remark: listed apart in the source
[6] = target: DIG-BP4 (digoxygenated protein); assay: SPR (Biacore), legend of FIG. 10d (Table 3 and the text print 33 pM)
[7] = target: DIG-BP4 (digoxygenated protein); assay: SPR (Biacore), antibody captured by anti-mouse IgG, DIG-BP4 injected 0.3125-10 nM, 25 C

DIG-Myoglobin (mono-digoxygenated protein), sequence (P68082 2-154): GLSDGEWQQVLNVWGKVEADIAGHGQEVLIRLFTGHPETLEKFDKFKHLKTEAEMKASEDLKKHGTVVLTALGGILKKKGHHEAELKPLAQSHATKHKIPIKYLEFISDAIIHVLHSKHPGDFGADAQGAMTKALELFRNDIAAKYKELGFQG

Binder | Kd [1] | Kd [2] | koff [2] | kon [2] | Kd [3] | Kd [4] | koff [4] | kon [4] | fold better affinity than <DIG>-hu2 and the disulfide-stabilized <DIG> scFv [5] | Kd [6] | Kd [7]
humanized <Dig> IgG (antibody, V domains shown, also called <DIG>hu2; <DIG>-hu2) VH: QVQLVESGGGLVKPGGSLRLSCAASGFTFSDYAMSWIRQAPGKGLEWVSSINIGATYIYYADSVKGRFTISRDNAKNSLYLQMNSLRAEDTAVYYCARPGSPYEYDKAYYSMAYWGQGTTVTVSS VL: DIQMTQSPSSLSASVGDRVTITCRASQDIKNYLNWYQQKPGKAPKLLIYYSSTLLSGVPSRFSGSGSGTDFTLTISSLQPEDFATYYCQQSITLPPTFGGGTKVEIKR | 15 to 25 nM | 15.8 nM | 0.00982 s⁻¹ | 620000 M⁻¹ s⁻¹ | < 0.076 nM | 11.8 nM | 0.00881 s⁻¹ | 749000 M⁻¹ s⁻¹ | – | – | –
murine <Dig> IgG1 kappa from mouse hybridoma clone 19-11 (antibody, V domains shown, also called murine DIG-IgG 19-11; <DIG>M-19-11) VH: EVQLVESGGGLVKPGGSLKLSCAVSGFTFSDYAMSWIRQTPENRLEWVASINIGATYAYYPDSVKGRFTISRDNAKNTLFLQMSSLGSEDTAMYYCARPGSPYEYDKAYYSMAYWGPGTSVTVSS VL: DVQMTQSTSSLSASLGDRVTISCRASQDIKNYLNWYQQKPGGTVKLLIYYSSTLLSGVPSRFSGRGSGTDFSLTITNLEREDIATYFCQQSITLPPTFGGGTKLEIK | – | 0.386 nM | 0.000676 s⁻¹ | 1.75e+06 M⁻¹ s⁻¹ | – | 0.295 nM | 0.000675 s⁻¹ | 2.28e+06 M⁻¹ s⁻¹ | ~100 fold | 33 nM | 0.033 nM
